In the supplement of paper PMC12042874 one finds amyloid nucleation score data, which are given here for 138 substances.

± gives the uncertainty stated by the source.

This series is described as follows: amyloid nucleation score (Sup35N fusion, yeast selection) (log enrichment); library NNK2; higher = more nucleation; inactive = no reads after selection. The method, boiled down: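 Output and input plasmid inserts were sequenced by Illumina after psi-negative yeast carrying Sup35N fused to peptides of 20 random codons had been induced 24 hours with 100 μM copper sulfate and grown 7 days at 30°C on medium lacking adenine and uracil. The nucleation score is the DiMSum log enrichment of output over input reads, centred on the mode score of non-aggregating sequences. Sequences with under 100 input reads were excluded.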
As to CLRLFTQSGFE, the amyloid nucleation score is -0.362 ± 0.38. The result for CLSSSSVVALGNRLETWIYA reads 2.73 ± 0.086; that for CLSVCCEDFNRSLTHYASSL, -0.743 ± 0.76. The result for CLVVHFPVCQQAKKDCDFRY reads 4.53 ± 0.051.

On to CLVVLISVVPMVGSLFSRCG, for which the amyloid nucleation score result was “inactive”. On to CLWSSNSSSIWDIGRYFRR, for which the amyloid nucleation score was -1.21 ± 0.31. The same measure for CLYCVMASQWGCFGLVESVT: 1.73 ± 0.47; for CMCENTYNRRIKVRYEWLKW: -0.619 ± 0.21; for CMGFLYTNTYCGGILIELFI: “inactive”. CMMLAPLCLSLL gave an amyloid nucleation score of -0.018 ± 1.1. The result for CMSVGGGLHG reads 3.13 ± 0.071; that for CMWGVDQPCLTTLTEAVLKP, 1.96 ± 0.12. The same measure for CNCDMLFCTTVSFRVLDTEN: 8.295 ± 0.037.

Consider CNFEHFFYKVFRFLQWTVYE, for which the amyloid nucleation score was -0.153 ± 1.1.

For the substance CNFSCGPKNQKNSMILWILN, the amyloid nucleation score entry was “inactive”. CNHFMTFRWWLVEQAGSMLA yielded an amyloid nucleation score of 0.044 ± 1.1. The same measure for CNLESMQSHFMVLCTFDG: -0.044 ± 0.63; for CNRCIQRMRASMTDSVFSGV: -1.35 ± 0.49; for CNRLVVLSSCNWYRDVADSL: 0.115 ± 1. The result for CNSSSGHDKIVIGSLFRVFA reads -1.42 ± 0.62; that for CNVSCFVRVVFKWIIS, 2.33 ± 0.24.

As to CNVSSELCYYGMSTYIKNPM, the amyloid nucleation score was -0.947 ± 0.32. In turn, CPFESRIAST gave an amyloid nucleation score of 0.132 ± 0.26. The same measure for CPGRRTISFYSFSFVFRSMN: “inactive”; for CPWSQSRLAYYTCGYYTASS: 0.193 ± 0.5; for CQAVRRILCYWTAYDIERAV: 1.16 ± 0.22. For the substance CQDSALALGDVFVPDKGVVR, the amyloid nucleation score was found to be 0.36 ± 0.8. On to CQMYHKCALVLLAGHQLRRR, for which the amyloid nucleation score is 1.19 ± 0.33. The same measure for CQRTTGALTSGWKPDDIGSV: 0.192 ± 0.46. In turn, CQSCYYHNR gave an amyloid nucleation score of -0.77 ± 0.21.

Turning to CRARNCVRLW, the amyloid nucleation score amounted to 0.165 ± 0.65. Consider CRCGWKGDSFKISMKMRNWV, for which the amyloid nucleation score amounted to 5.36 ± 0.066.

As to CRFIRFHYLGYNLGSHHIYI, the amyloid nucleation score is -0.902 ± 0.78.

In turn, CRFKVQQMTMENLAQMLVKG displayed an amyloid nucleation score of 1.15 ± 0.68. The result for CRGTQALSYSLS reads -0.017 ± 0.76. The same measure for CRGVNVHDSSW: -0.321 ± 0.22; for CRITNSNSL: -0.448 ± 0.28. The result for CRKCFT reads 0.717 ± 0.4. Take CRMHVFVEC: the amyloid nucleation score was -0.019 ± 0.53. CRSFAVTDLRVYVKF displayed an amyloid nucleation score of 2.12 ± 0.12.

Turning to CRSTGIDIIYYHISFFLYIW, the amyloid nucleation score result is “inactive”. The same measure for CRVALSVVYHTINEKQWYRV: -0.988 ± 0.28; for CRVYMVDWGVVLRFDVRGSS: -0.909 ± 0.78. CRYTASASDPDDTGLIRFNA had an amyloid nucleation score of 3.75 ± 0.073.

Take CSCDGWVCPCSACIC: the amyloid nucleation score came out at 8.708 ± 0.035.

CSDCDSRMC returned an amyloid nucleation score of -0.41 ± 0.42.

CSHTVFGSVCGFTLFQVH showed an amyloid nucleation score of 4.06 ± 0.13. Substance CSIVVNQARCDGSCNYRKVM showed an amyloid nucleation score of 9.731 ± 0.055.

CSLLGNFYILGYWATFMASD showed an amyloid nucleation score of -1.57 ± 0.53. The same measure for CSLMNNRVHFVWSHRRMSGT: 0.276 ± 1. The result for CSLVAPGTYYYGEWFPGQMS reads -0.66 ± 0.29; that for CSNYFLSEELRHSVEVGSES, 0.463 ± 0.18.

In the case of CSPYVRSCTGYVEWGSIRTM, the amyloid nucleation score came to 0.06 ± 0.29.

In the case of CSRLG, the amyloid nucleation score is -1.39 ± 1.1.

Consider CSSYHLEYKCYKHLLWFQSR, for which the amyloid nucleation score is -0.306 ± 0.3. The same measure for CSVWWLWSLRM: 1.13 ± 0.43; for CSVYVCQLSLCCSVY: 6.426 ± 0.06.

CSYWNVGYREVRMTDDDTMG registered an amyloid nucleation score of -0.975 ± 0.53. Consider CTCFGRVRLQKSIWGKRLIH, for which the amyloid nucleation score is -0.383 ± 0.56.

CTEGQLN showed an amyloid nucleation score of 0.002 ± 0.55. The result for CTFFTSTPT reads 0.343 ± 0.51; that for CTSASGTSPGWNKRGRNWGD, 5.52 ± 0.095. The result for CTWIYTLTFFARNS reads 0.01 ± 0.55. The same measure for CVECYFRCGLGITEVDTN: “inactive”; for CVFASNKRMEGVDKKLRVRN: 0.403 ± 0.62. Substance CVICDNYFILEAVF displayed an amyloid nucleation score of -0.771 ± 1.1. The result for CVICHYHLCLRQCIWSG reads 5.373 ± 0.033; that for CVIGADALASG, 0.5 ± 0.38. The result for CVILLVIFMLYIYWFSDMFL reads -0.721 ± 0.63. For the substance CVMHVRHHYGDI, the amyloid nucleation score entry is “inactive”.

As to CVMMLSSFLQRCRRVVLDSR, the amyloid nucleation score was determined as 0.325 ± 0.56.

CVMTRRSTKCFSMSLLSIWL had an amyloid nucleation score of 6.496 ± 0.056. The result for CVREIYYVFCINSPVIAMDC reads 6.149 ± 0.038; that for CVSSARNIHFNGVVKCVRYR, 2.79 ± 0.054; that for CVSVGCVESGTMICQLKLSQ, 7.19 ± 0.075.

Substance CVVRSSAKRFDCRKFGRASN had an amyloid nucleation score of 0.599 ± 0.8. In the case of CWFHGLWIRGVDNSSVYWMD, the amyloid nucleation score is -0.466 ± 0.65. The result for CWFMYPSMIDWWSMTSRECF reads -0.129 ± 0.18. The result for CWMIQLVVLEWCAHGPRVAN reads -0.304 ± 0.41. CWTEY: the amyloid nucleation score is -0.589 ± 0.3. On to CYCDSWIMAS, for which the amyloid nucleation score is -1.69 ± 0.55. The same measure for CYCEEMSMNTFKTCINTGAM: 1.04 ± 0.42; for CYIFYS: “inactive”. On to DAFGRIGPNEKLYDGEDECW, for which the amyloid nucleation score was 0.902 ± 0.22. The result for DAFWCYVDTLYMNRPSQ reads 0.988 ± 0.29.

For DAMFFKCRMYRAVGRFFREG, the amyloid nucleation score is 0.02 ± 0.28. The result for DASMQF reads 0.797 ± 0.57. The same measure for DCFFFKSWVSLGKIMLSTFS: -0.997 ± 1.1; for DCNVWSSSERKVLSRGTSDF: -0.193 ± 0.31. The same measure for DCSLELVNRRGSGIVQCAGY: 1.1 ± 0.38; for DCWNCIISGSSALCAHVQSV: “inactive”; for DCYRPYWKVFIPLVIFGA: -0.076 ± 0.55. For DDRELL, the amyloid nucleation score is -0.32 ± 0.63. The same measure for DDSFGVAVMKVWEMRGWSAL: 1.16 ± 0.27; for DDSMHWFYLLGWIPVGSKGG: “inactive”. The result for DDWVSGEEFGRSRNLNHFPD reads -1.56 ± 0.48. The result for DDYTDTCRCDMFRFSEFLTN reads -0.534 ± 0.74; that for DEEGRVSPDVARLVAVICGA, 0.413 ± 0.39; that for DFCCWCPFCYVSWYEGIVMI, 0.305 ± 1. DFFVLVGYGKVK gave an amyloid nucleation score of 0.595 ± 0.53.

On to DFIEMVLDGCSHGLATVCPT, for which the amyloid nucleation score entry was “inactive”.

The substance DFSIQWCTSSINYVLYFAI returned an amyloid nucleation score of -1.89 ± 0.44. The same measure for DFVPNGCNCINSGWDFRQVD: -1.88 ± 0.64; for DFWFSGDFK: -0.778 ± 0.44; for DGELVVWFMVMSWWNIKDSK: -0.446 ± 1. In turn, DGFRTYIVRWEATVANSLVV showed an amyloid nucleation score of 0.736 ± 0.52. The substance DGFSYDPFSMVSIVVRFVVG gave an amyloid nucleation score of 0.99 ± 0.32. The same measure for DGFYG: “inactive”; for DGKFRRVTLRGPLA: 0.554 ± 0.56.

Consider DGPWGSMDTRYNSS, for which the amyloid nucleation score amounted to 0.479 ± 0.74. The substance DGSMFGPDVCFYIVSLILPF yielded an amyloid nucleation score of 5.03 ± 0.07. The same measure for DGTAFMARPKETSIPDVSSS: -0.593 ± 0.33; for DGTYLQNRRDFNNGSARRGW: 0.984 ± 0.57.

Substance DHCDAVNSFEEWLMRGVPYN yielded an amyloid nucleation score of -0.06 ± 0.45. The result for DHIVYTLGCWGLRSPFKPLL reads 0.026 ± 1.1. The result for DHNGVKSTSHKSSFFMSTGR reads 0.056 ± 0.39. The same measure for DHRVLQWLTAPY: 0.353 ± 0.36. As to DHSYRRYVVEGLFSVSQNGK, the amyloid nucleation score amounted to 0.21 ± 0.54.

With DICVKSRRSRPRV, the amyloid nucleation score was 0.591 ± 0.51.

As for DIERQAVNRPVGRLGKTEDS, the amyloid nucleation score turned out to be 0.242 ± 0.77. The result for DIFLM reads 0.487 ± 0.15; that for DIIRMGFRPFWQGVCVRLSY, -0.669 ± 0.63; that for DILGFCLSCMLRVGLFTWGR, “inactive”. The same measure for DITLFYSDTSCRFSVPCSVD: 0.598 ± 0.46. The same measure for DKKLIFRWAITVMIRIPART: 1.65 ± 0.48. In the case of DKTKE, the amyloid nucleation score entry was “inactive”.

In turn, DKTVIPLCFLHFNRT yielded an amyloid nucleation score of -1.35 ± 0.78.

In turn, DKYNTVRLCP displayed an amyloid nucleation score of 0.987 ± 0.5.

Regarding DLEVLSLGGINFFVVDTFMI, the amyloid nucleation score is 0.964 ± 0.28. The result for DLGAFRLRR reads -2.19 ± 0.54; that for DLKRLAWMLILSIYNRSTIM, -0.221 ± 1.1. The same measure for DLRLYILNL: 6.556 ± 0.055. The result for DLRRGSRRWRKYGTGECGLL reads 0.43 ± 0.32; that for DLRSWVFWNTSAYYIFSTDS, -1.32 ± 0.36; that for DLSCGGRLKMNHYKA, -0.686 ± 0.76. DLSNSIVLLGFDNSQWLRDA came in with an amyloid nucleation score of 1.78 ± 0.095. DLSQYDCVNVFALPGWCNNT: the amyloid nucleation score is 4.35 ± 0.048. Regarding DLVSLLSGVFVMFVGLCFEV, the amyloid nucleation score was -0.733 ± 1.1.
